B1: TPR t1 (parent)
chain: GACCAAUCUGCCCUCAGAGCUCGAGAACAUCUUCGGAUGCAGAGGAGGCAGGCUUCGGUGGCGCGAUAGCGCCAACGUCCUCAACCUCCAAUGCAUCCCACCACAUGAUGAUGCCUGAAGAGCCUUGGUUUUUUG

Variants of: B1
Assay: polymerase ribozyme fitness, log enrichment relative to wild type (log ratio); higher = more active; in vitro selection for triplet polymerase activity
Procedure, shortened: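 Only genotypes with ≥10 input reads and ≥1 read per output were kept after Illumina sequencing of input and output libraries. These libraries were PCR-built, transcribed mutants of each subunit of a heterodimeric triplet polymerase ribozyme, each put through one triplicate in vitro selection round with frozen incubation at −7 °C, gel excision of extended constructs, streptavidin-bead capture and RT-PCR. Fitness is a logarithmic ratio of genotype enrichment to wild-type enrichment, from inverse-variance-weighted replicate averages, with the logarithm in base 2.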

Row | Variant | polymerase ribozyme fitness (log ratio)
1 | G44C G58C U59C U96A | -1.98
2 | G44C G63A C85U G110C | -7.22
3 | A43U C85A | -2.96
4 | G44A G51A C80U C86A C124G | -0.462
5 | G44C C53A C72U C88U A100U | -0.423
6 | A43U C79U | -0.702
7 | G44A U55G G63C | -0.567
8 | A43U G52C C72U | -2.16
9 | G44C C70G A119U | -5.47
10 | G44A C72G C123A | -1.13
11 | A43U G135U | -0.971
12 | G44A C53U C82U G117A C124A | -1.14
13 | G44A C49U U54G U59A G61A A119G | -7.24
14 | A43G G60A G107C C114U G120U U133G | -3.85
15 | G44C G47U G48A | -1.43
16 | G44C C64U A111G | -0.526
17 | A43U G45U G110U | -3.95
18 | A43G G60U U78C | -2.18
19 | G44U A46C G52U G61U C124A | -3.53
20 | G44A C49U G117C U133G | -5.23
21 | A43U C115A C124U | -0.864
22 | A43U G120C U132A | 0.0679
23 | G44A G47U | -2.36
24 | G44A G48U U125G | -2.23

Row | Variant | polymerase ribozyme fitness (log ratio)
25 | G44A C72A C98U G110A | -4.64
26 | G44A A50U G60A U132C | -2.42
27 | A43U C73G C85U C98G C115U | -7.11
28 | A43G G63A G77C A90G G127U G135C | -3.69
29 | A43U U112G | -1.93
30 | A43U U112A | -0.216
31 | G44U C72G C85A | -2.52
32 | G44C C72U A100C | -2.51
33 | G44U C56U | -0.616
34 | G44C U55A A103U U130A | -5.8
35 | G44A G51U A121G | -3.43
36 | G44C G47A C73G | -2.76
37 | A43U A46U C56A | -2.93
38 | A43G G63U C115U | -4.05
39 | G44A U78G | -1.09
40 | A43U G47U G61A C72G C97U | -2.63
41 | G44C C88A U109A | -5.8
42 | A43U A90C G110A A111G U132A | -0.915
43 | A43U A50U U81A A91G U92G | -3.02
44 | G44A C72G A119G U125C | -2.76
45 | G44U C64U | -1.48
46 | A43U A66G | -3.64
47 | G44A C56U C123U G135U | -0.56
48 | G44C G77A | -0.814

Row | Variant | polymerase ribozyme fitness (log ratio)
49 | A43U A46U G47U G117U | -7.8
50 | A43U G45A C56A | -1.86
51 | G44A A103G | -6.14
52 | G44A A103U | -5.44
53 | G44A C73A U87G | -0.428
54 | G44U C72A G127C U131C | -3.12
55 | G44U C64G C101G A121U | -6.22
56 | G44A G69U C104A | -1.28
57 | A43U C72A | -1.26
58 | A43U C49U A75U G113C C123U | -3.62
59 | G44C U92G U106A U116A | -6.02
60 | G44U C72G U92A C115G | -5.53
61 | A43U C88A | -1.18
62 | G44A C101G U133C | -2.92
63 | G44C | -0.805
64 | G44A | -0.794
65 | G44U | -1.16
66 | G44A U92G | -3.27
67 | A43U C123A | -1.02
68 | A43U C76A G135U | -3.89
69 | G44A C72A | -0.836
70 | A43U A121G | 1.17
71 | G44U C72A | -1.04
72 | A43G G113A | -2.18

Row | Variant | polymerase ribozyme fitness (log ratio)
73 | G44A U55A C85G G113A | -3.2
74 | G44A G113C | -3.16
75 | A43U G48U U54C C89U U112A | -0.663
76 | G44A U112A | 0.126
77 | A43U C53U C72A A91U A105G U106A U125G | -2.96
78 | A43G G61U C114A G127C U132A | -3.36
79 | G44A U130C | -0.447
80 | A43U G45A U96A A108G C123G | -4.02
81 | G44A G63A G122A | -2.73
82 | G44C U106C G135C | -1.28
83 | A43U C62G C82A C101A C123G | -4.38
84 | A43U A118U | -1.23
85 | G44U C56A G127C | -2.27
86 | A43U C49G G135U | -3.89
87 | G44A G61U C99U | -4.04
88 | G44A G60U A108U C115A A121U | -4.86
89 | G44A G48C G60U | -0.957
90 | G44C C53U G61U C124U | 0.752
91 | G44U C72G C85U U96A A121G C124G | -3.64
92 | A43U U78C G93A | -1.95
93 | G44A A95C | -1.35
94 | A43U G48A A100C A111G | -5.16
95 | A43U G93U U112A G127C | -2.82
96 | G44A C86G U96A | -3.83

Row | Variant | polymerase ribozyme fitness (log ratio)
97 | G44A U54A C62A U106A | -3.38
98 | G44C G120C | -0.584
99 | A43U G60U C123G U132G | 0.532
100 | A43G G117U | -4.21
101 | A43U G48U C56G U116A | -6.74
102 | G44A G69C C89U A118U C124G G127C | -0.292
103 | G44A C62A C88U C89U G128C U129G | -2.95
104 | G44A C79A U125A | -3.2
105 | A43U G93A A119C G120A | -2.58
106 | A43U G51U G71A C79A U112G | -6.57
107 | G44A G60C C114A | -2.55
108 | A43U C56U | -1.59
109 | A43U G47C G113U | -3.6
110 | G44A C72A G110A G122A C124A | -3.56
111 | A43U C102U | -3.44
112 | G44C A46U G58A G117A U130G | -3.81
113 | A43U U87A G117A | -3.08
114 | G44A U109G | -5.09
115 | G44A C72G U96G | -2.52
116 | G44U A46C A95G | -3.59
117 | G44C C73U U112G G120U G127C | -5.16
118 | A43U G63U | -3.68
119 | G44U A66U | -2.13
120 | G44C U87A | -1.07

Row | Variant | polymerase ribozyme fitness (log ratio)
121 | A43U A46C C115U U116C | -2.39
122 | A43U A91U G110A G120C | -5.56
123 | G44U A46U C89A | -0.411
124 | G44U C62A A84U A118G | -4.34
125 | A43G U54C A95U A121C U129A | -2.96
126 | G44A C70G C101G C114U G128C | -6.56
127 | G44A G71U | -1.33
128 | A43U C114G | -3.27
129 | A43G U112A | -0.27
130 | A43U C56G U67A G69U G71C A75G C101A G107C C124G | -7.81
131 | G44C G69U A75G C79U U87A C97U G135U | -5.55
132 | G44U C49A | -2.67
133 | A43U C82G A119G C123U C124A | -0.662
134 | A43U U54A U112A | -0.639
135 | G44A U81G U87G A90G | -4.02
136 | G44U A90U G135U | -2.19
137 | G44C C72G C88U C101U | -2.47
138 | G44U C49A A50C G71A | -5.27
139 | A43U U92C U112G | -2.71
140 | G44A A118G | -1.56
141 | G44A A118U | -0.0596
142 | A43U U78G C85U G93A | -3.01
143 | A43U U87G C102U | -5.04
144 | A43U C76U C123G | -0.376

Row | Variant | polymerase ribozyme fitness (log ratio)
145 | G44C U81C U106A | -0.434
146 | A43U A83U | -1.8
147 | G44A G71A U87G A90C G135U | -2.38
148 | A43U C76A C85G G120A U130C | -1.34
149 | A43U G45U | -1.71
150 | G44A G58U U81A | -1.79
151 | A43U U106A A108U U112A | -2.46
152 | A43U C53A U129A | -4.05
153 | G44A A75U A118G | -1.19
154 | G44C G47A G61U U133A | -1.13
155 | G44U A83C | -1.34
156 | A43G U59A C99U | -6.09
157 | G44C C62A U132C | -2.12
158 | A43G U92A | -2.96
159 | G44A G110C | -4.8
160 | G44C C102A G120U | -4.59
161 | G44A A68G C70G C72A G110A G122A C124A | -7.69
162 | A43U C62G U112G G113C G122U | -6.69
163 | A43G G69U C89U | -0.177
164 | A43U G44C | -1.05
165 | A43G G110C | -2.35
166 | G44U C64U C102A | -2.68
167 | A43U G44C G45A A83C G110A | -6.81

— the RNAGym collection of RNA variant scans (doi:10.1073/pnas.2313332121)
